# Values of other authors, collected in paper PMC4385930.
# Key:
# [1] = target: Bim BH3 (Homo sapiens) (UniProt O43521)
# [2] = target: Bak BH3 (Homo sapiens) (UniProt Q16611)
# [3] = target: Bax BH3 (Homo sapiens) (UniProt Q07812)
substance,measurement,setting,value
F1L (from UniProt P24356),Kd,[1],200 nM
same,Kd,[2],4300 nM
same,Kd,[3],2000 nM
